Molecular target: T1, PUF4 RNA-binding domain (Saccharomyces cerevisiae, UniProt P25339 537-888)
T1 sequence: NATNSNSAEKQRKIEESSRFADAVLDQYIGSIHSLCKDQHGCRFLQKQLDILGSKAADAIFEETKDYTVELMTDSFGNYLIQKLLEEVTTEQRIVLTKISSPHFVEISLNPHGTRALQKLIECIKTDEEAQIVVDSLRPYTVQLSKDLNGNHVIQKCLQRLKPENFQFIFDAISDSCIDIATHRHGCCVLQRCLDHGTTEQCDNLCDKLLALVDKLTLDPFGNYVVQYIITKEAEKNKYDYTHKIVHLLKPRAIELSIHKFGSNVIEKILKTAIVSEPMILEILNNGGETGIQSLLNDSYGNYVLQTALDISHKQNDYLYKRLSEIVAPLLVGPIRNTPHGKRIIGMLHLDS
Experiment: Mg; RNA-MaP; 20 mM Na-HEPES pH 7.4, 30 mM KOAc, 0.75 mM MgCl2, 0.1% Tween-20, 5% glycerol, 0.1 mg/mL BSA, 2 mM DTT; 25 C; 0.0125-409.6 nM protein
Details: tags: N-His6-TEV cleaved; C-SNAP kept, Cy3B-labelled; label: tethered on chip by stalled RNA polymerase

UCUCUUUCUAUAUAUACGUCUCUU (ssRNA) [Id_ii_S1_P3E.3_K3.2_C3.2_[C-2T]_[T-1C]_H3.2_A3.1_F3.1_T3.2_[T9C]_[A10G]]
Kd: 1.45 µM

UCUCUUGCUAUAUAUAUGUCUCUU (ssRNA) [Id_ii_S1_P3E.3_K3.2_C3.2_[C-2G]_[T-1C]_H3.2_A3.1_F3.1_T3.2_[A10G]]
Kd: 0.754 µM

UCUCUUUCUAUAUAUACAUCUCUU (ssRNA) [Id_ii_S1_P3E.3_K3.2_C3.2_[C-2T]_[T-1C]_H3.2_A3.1_F3.1_T3.2_[T9C]]
Kd: 1.03 µM

UCUCUUUCUAUAUAUAACUCUCUU (ssRNA) [Id_ii_S1_P3E.3_K3.2_C3.2_[C-2T]_[T-1C]_H3.2_A3.1_F3.1_T3.2_[T9A]_[A10C]]
Kd: 0.96 µM

UCUCUUCUUGUAUAUAUUUCUCUU (ssRNA) [Id_ii_S1_P3E.2_K3.1_C3.2_H3.1_A3.1_F3.1_T3.2_[A10T]]
Kd: 0.00512 µM

UCUCUUGCUAUAUAUAACUCUCUU (ssRNA) [Id_ii_S1_P3E.3_K3.2_C3.2_[C-2G]_[T-1C]_H3.2_A3.1_F3.1_T3.2_[T9A]_[A10C]]
Kd: 1.51 µM

UCUCUUUCUAUAUAUACCUCUCUU (ssRNA) [Id_ii_S1_P3E.3_K3.2_C3.2_[C-2T]_[T-1C]_H3.2_A3.1_F3.1_T3.2_[T9C]_[A10C]]
Kd: 1.39 µM

UCUCUUCUUGUAUAUAUAUCUCUU (ssRNA) [Id_ii_S1_P3E.2_K3.1_C3.2_H3.1_A3.1_F3.1_T3.2]
Kd: 0.00383 µM

UCUCUUGUUAUAUAUAAAUCUCUU (ssRNA) [Id_ii_S1_P3E.3_K3.2_C3.2_[C-2G]_H3.2_A3.1_F3.1_T3.2_[T9A]]
Kd: 0.05 µM

UCUCUUUGUAUAUAUAGUUCUCUU (ssRNA) [Id_ii_S1_P3E.3_K3.2_C3.2_[C-2T]_[T-1G]_H3.2_A3.1_F3.1_T3.2_[T9G]_[A10T]]
Kd: 0.00233 µM

UCUCUUUAUAUAUAUAAUUCUCUU (ssRNA) [Id_ii_S1_P3E.3_K3.2_C3.2_[C-2T]_[T-1A]_H3.2_A3.1_F3.1_T3.2_[T9A]_[A10T]]
Kd: 0.642 µM

UCUCUUAGUAAAUUAUCUCUU (ssRNA) [Ib_S1_P4E.1_K4.1_C4.1_H4.1_[T1A]_A4.1_[T5A]_F4.1_T4.1]
Kd: 0.491 µM

UCUCUUUGUAUAUAUAUCUCUCUU (ssRNA) [Id_ii_S1_P3E.3_K3.2_C3.2_[C-2T]_[T-1G]_H3.2_A3.1_F3.1_T3.2_[A10C]]
Kd: 0.00336 µM

UCUCUUUGUAUAUAUAAUUCUCUU (ssRNA) [Id_ii_S1_P3E.3_K3.2_C3.2_[C-2T]_[T-1G]_H3.2_A3.1_F3.1_T3.2_[T9A]_[A10T]]
Kd: 0.00844 µM

UCUCUUCGUAUUUUAUCUCUU (ssRNA) [Ib_S1_P4E.1_K4.1_C4.1_H4.1_[T1C]_A4.1_[A6T]_F4.1_T4.1]
Kd: 0.591 µM

UCUCUUGUUAUAUAUAUGUCUCUU (ssRNA) [Id_ii_S1_P3E.3_K3.2_C3.2_[C-2G]_H3.2_A3.1_F3.1_T3.2_[A10G]]
Kd: 0.0463 µM

UCUCUUUGUAUAUAUAAGUCUCUU (ssRNA) [Id_ii_S1_P3E.3_K3.2_C3.2_[C-2T]_[T-1G]_H3.2_A3.1_F3.1_T3.2_[T9A]_[A10G]]
Kd: 0.00825 µM

UCUCUUGCUAUAUAUACUUCUCUU (ssRNA) [Id_ii_S1_P3E.3_K3.2_C3.2_[C-2G]_[T-1C]_H3.2_A3.1_F3.1_T3.2_[T9C]_[A10T]]
Kd: 0.853 µM

UCUCUUGUUAUAUAUAUCUCUCUU (ssRNA) [Id_ii_S1_P3E.3_K3.2_C3.2_[C-2G]_H3.2_A3.1_F3.1_T3.2_[A10C]]
Kd: 0.0248 µM

UCUCUUUAUAUAUAUACGUCUCUU (ssRNA) [Id_ii_S1_P3E.3_K3.2_C3.2_[C-2T]_[T-1A]_H3.2_A3.1_F3.1_T3.2_[T9C]_[A10G]]
Kd: 0.503 µM

UCUCUUUAUAUAUAUAGCUCUCUU (ssRNA) [Id_ii_S1_P3E.3_K3.2_C3.2_[C-2T]_[T-1A]_H3.2_A3.1_F3.1_T3.2_[T9G]_[A10C]]
Kd: 0.148 µM

UCUCUUGGUAUAUAUAAUUCUCUU (ssRNA) [Id_ii_S1_P3E.3_K3.2_C3.2_[C-2G]_[T-1G]_H3.2_A3.1_F3.1_T3.2_[T9A]_[A10T]]
Kd: 0.524 µM

UCUCUUUGUAUAUAUAGCUCUCUU (ssRNA) [Id_ii_S1_P3E.3_K3.2_C3.2_[C-2T]_[T-1G]_H3.2_A3.1_F3.1_T3.2_[T9G]_[A10C]]
Kd: 0.00366 µM

UCUCUUGUUAUAUAUACCUCUCUU (ssRNA) [Id_ii_S1_P3E.3_K3.2_C3.2_[C-2G]_H3.2_A3.1_F3.1_T3.2_[T9C]_[A10C]]
Kd: 0.0359 µM

UCUCUUGUUAUAUAUAGUUCUCUU (ssRNA) [Id_ii_S1_P3E.3_K3.2_C3.2_[C-2G]_H3.2_A3.1_F3.1_T3.2_[T9G]_[A10T]]
Kd: 0.0121 µM

UCUCUUGUUAUAUAUAUAUCUCUU (ssRNA) [Id_ii_S1_P3E.3_K3.2_C3.2_[C-2G]_H3.2_A3.1_F3.1_T3.2]
Kd: 0.0411 µM

UCUCUUCGUAAAUUAUCUCUU (ssRNA) [Ib_S1_P4E.1_K4.1_C4.1_H4.1_[T1C]_A4.1_[T5A]_F4.1_T4.1]
Kd: 0.139 µM

UCUCUUGAUAUAUAUAAUUCUCUU (ssRNA) [Id_ii_S1_P3E.3_K3.2_C3.2_[C-2G]_[T-1A]_H3.2_A3.1_F3.1_T3.2_[T9A]_[A10T]]
Kd: 1.04 µM

UCUCUUGUUAUAUAUAAUUCUCUU (ssRNA) [Id_ii_S1_P3E.3_K3.2_C3.2_[C-2G]_H3.2_A3.1_F3.1_T3.2_[T9A]_[A10T]]
Kd: 0.0446 µM

UCUCUUCUUGUAUAUAAAUCUCUU (ssRNA) [Id_ii_S1_P3E.2_K3.1_C3.2_H3.1_A3.1_F3.1_T3.2_[T9A]]
Kd: 0.00821 µM

UCUCUUGAUAUAUAUAGCUCUCUU (ssRNA) [Id_ii_S1_P3E.3_K3.2_C3.2_[C-2G]_[T-1A]_H3.2_A3.1_F3.1_T3.2_[T9G]_[A10C]]
Kd: 0.5 µM

UCUCUUUGUAUAUAUACCUCUCUU (ssRNA) [Id_ii_S1_P3E.3_K3.2_C3.2_[C-2T]_[T-1G]_H3.2_A3.1_F3.1_T3.2_[T9C]_[A10C]]
Kd: 0.01 µM

UCUCUUCUUGUAUAUAUGUCUCUU (ssRNA) [Id_ii_S1_P3E.2_K3.1_C3.2_H3.1_A3.1_F3.1_T3.2_[A10G]]
Kd: 0.0122 µM

UCUCUUGGUAUAUAUAGUUCUCUU (ssRNA) [Id_ii_S1_P3E.3_K3.2_C3.2_[C-2G]_[T-1G]_H3.2_A3.1_F3.1_T3.2_[T9G]_[A10T]]
Kd: 0.124 µM

UCUCUUUCUAUAUAUAGCUCUCUU (ssRNA) [Id_ii_S1_P3E.3_K3.2_C3.2_[C-2T]_[T-1C]_H3.2_A3.1_F3.1_T3.2_[T9G]_[A10C]]
Kd: 0.62 µM

UCUCUUUAUAUAUAUAUUUCUCUU (ssRNA) [Id_ii_S1_P3E.3_K3.2_C3.2_[C-2T]_[T-1A]_H3.2_A3.1_F3.1_T3.2_[A10T]]
Kd: 0.329 µM

UCUCUUCUUGUAUAUAUCUCUCUU (ssRNA) [Id_ii_S1_P3E.2_K3.1_C3.2_H3.1_A3.1_F3.1_T3.2_[A10C]]
Kd: 0.00672 µM

UCUCUUUGUAUAUAUAACUCUCUU (ssRNA) [Id_ii_S1_P3E.3_K3.2_C3.2_[C-2T]_[T-1G]_H3.2_A3.1_F3.1_T3.2_[T9A]_[A10C]]
Kd: 0.00491 µM

UCUCUUUAUAUAUAUAUGUCUCUU (ssRNA) [Id_ii_S1_P3E.3_K3.2_C3.2_[C-2T]_[T-1A]_H3.2_A3.1_F3.1_T3.2_[A10G]]
Kd: 0.427 µM

UCUCUUAGUACAUUAUCUCUU (ssRNA) [Ib_S1_P4E.1_K4.1_C4.1_H4.1_[T1A]_A4.1_[T5C]_F4.1_T4.1]
Kd: 0.0391 µM

UCUCUUUCUAUAUAUAUCUCUCUU (ssRNA) [Id_ii_S1_P3E.3_K3.2_C3.2_[C-2T]_[T-1C]_H3.2_A3.1_F3.1_T3.2_[A10C]]
Kd: 0.603 µM

UCUCUUGUUAUAUAUACUUCUCUU (ssRNA) [Id_ii_S1_P3E.3_K3.2_C3.2_[C-2G]_H3.2_A3.1_F3.1_T3.2_[T9C]_[A10T]]
Kd: 0.0515 µM

UCUCUUUGUAUUUUAUCUCUU (ssRNA) [Ic_S1_P4E.1_K4.1_C4.1_H4.1_A4.1_[A6T]_F4.1_T4.1]
Kd: 0.00246 µM

UCUCUUGUUAUAUAUACGUCUCUU (ssRNA) [Id_ii_S1_P3E.3_K3.2_C3.2_[C-2G]_H3.2_A3.1_F3.1_T3.2_[T9C]_[A10G]]
Kd: 0.0552 µM

UCUCUUUGUAUAUAUAUGUCUCUU (ssRNA) [Id_ii_S1_P3E.3_K3.2_C3.2_[C-2T]_[T-1G]_H3.2_A3.1_F3.1_T3.2_[A10G]]
Kd: 0.00485 µM

UCUCUUGGUAUAUAUAACUCUCUU (ssRNA) [Id_ii_S1_P3E.3_K3.2_C3.2_[C-2G]_[T-1G]_H3.2_A3.1_F3.1_T3.2_[T9A]_[A10C]]
Kd: 0.782 µM

UCUCUUUAUAUAUAUACUUCUCUU (ssRNA) [Id_ii_S1_P3E.3_K3.2_C3.2_[C-2T]_[T-1A]_H3.2_A3.1_F3.1_T3.2_[T9C]_[A10T]]
Kd: 0.172 µM

UCUCUUGAUAUAUAUACCUCUCUU (ssRNA) [Id_ii_S1_P3E.3_K3.2_C3.2_[C-2G]_[T-1A]_H3.2_A3.1_F3.1_T3.2_[T9C]_[A10C]]
Kd: 1.31 µM

UCUCUUUCUAUAUAUAGUUCUCUU (ssRNA) [Id_ii_S1_P3E.3_K3.2_C3.2_[C-2T]_[T-1C]_H3.2_A3.1_F3.1_T3.2_[T9G]_[A10T]]
Kd: 0.771 µM

UCUCUUUGUAUAUAUAUUUCUCUU (ssRNA) [Id_ii_S1_P3E.3_K3.2_C3.2_[C-2T]_[T-1G]_H3.2_A3.1_F3.1_T3.2_[A10T]]
Kd: 0.005 µM

UCUCUUCGUAUGUUAUCUCUU (ssRNA) [Ib_S1_P4E.1_K4.1_C4.1_H4.1_[T1C]_A4.1_[A6G]_F4.1_T4.1]
Kd: > 2.3 µM

UCUCUUUCUAUAUAUAUUUCUCUU (ssRNA) [Id_ii_S1_P3E.3_K3.2_C3.2_[C-2T]_[T-1C]_H3.2_A3.1_F3.1_T3.2_[A10T]]
Kd: 0.591 µM

UCUCUUUAUAUAUAUAGUUCUCUU (ssRNA) [Id_ii_S1_P3E.3_K3.2_C3.2_[C-2T]_[T-1A]_H3.2_A3.1_F3.1_T3.2_[T9G]_[A10T]]
Kd: 0.14 µM

UCUCUUUAUAUAUAUACAUCUCUU (ssRNA) [Id_ii_S1_P3E.3_K3.2_C3.2_[C-2T]_[T-1A]_H3.2_A3.1_F3.1_T3.2_[T9C]]
Kd: 0.384 µM

UCUCUUUCUAUAUAUAAUUCUCUU (ssRNA) [Id_ii_S1_P3E.3_K3.2_C3.2_[C-2T]_[T-1C]_H3.2_A3.1_F3.1_T3.2_[T9A]_[A10T]]
Kd: 1.01 µM

UCUCUUGCUAUAUAUAUCUCUCUU (ssRNA) [Id_ii_S1_P3E.3_K3.2_C3.2_[C-2G]_[T-1C]_H3.2_A3.1_F3.1_T3.2_[A10C]]
Kd: 0.545 µM

UCUCUUUCUAUAUAUAUGUCUCUU (ssRNA) [Id_ii_S1_P3E.3_K3.2_C3.2_[C-2T]_[T-1C]_H3.2_A3.1_F3.1_T3.2_[A10G]]
Kd: 1.21 µM

UCUCUUUAUAUAUAUAUCUCUCUU (ssRNA) [Id_ii_S1_P3E.3_K3.2_C3.2_[C-2T]_[T-1A]_H3.2_A3.1_F3.1_T3.2_[A10C]]
Kd: 0.37 µM
